This passage reports stoichiometry N and Kd results from article PMC3093367.

Values joined by “and” are separate entries in the source; they are usually repeats but may differ in a detail not shown here. Equal entries are not always repeated.

As a reminder, the stoichiometry N is the number of molecules, sites or subunits per partner or assembly. The term Kd denotes a measure of binding affinity in units of concentration.

For data set [1], the target named is Rift Valley fever virus nucleoprotein (N), recombinant wild type (Rift Valley fever virus (strain Smithburn)) (UniProt P21700). In words: crystal structure.
The target is the same in data set [2]. In words: cross-linking.
Data set [3] concerns the target T1, RVFV nucleoprotein N (SEC fraction N2) (Rift Valley fever virus (strain …, UniProt D3K5I7 1-245)).
T1 sequence: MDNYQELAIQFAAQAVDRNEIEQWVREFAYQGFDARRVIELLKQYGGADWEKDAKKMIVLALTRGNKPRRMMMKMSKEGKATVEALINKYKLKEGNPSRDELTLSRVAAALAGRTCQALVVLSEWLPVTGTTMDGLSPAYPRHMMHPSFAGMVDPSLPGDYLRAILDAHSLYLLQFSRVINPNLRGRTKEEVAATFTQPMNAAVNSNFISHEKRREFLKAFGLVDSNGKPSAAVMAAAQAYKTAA
Nature of the data set: SPR; RNA immobilized via biotin-NeutrAvidin; SPR (ProteOn XPR36, […]; temperature not stated. The conditions noted are these: protein: recombinant; tags: N-terminal thioredoxin-His6 tag removed by TEV; label: 3' biotin; single strand. For orientation: Surface plasmon resonance follows binding to a sensor surface in real time, without labels.

Chain of Rift Valley fever virus nucleoprotein (N), recombinant wild type (P21700 whole entry): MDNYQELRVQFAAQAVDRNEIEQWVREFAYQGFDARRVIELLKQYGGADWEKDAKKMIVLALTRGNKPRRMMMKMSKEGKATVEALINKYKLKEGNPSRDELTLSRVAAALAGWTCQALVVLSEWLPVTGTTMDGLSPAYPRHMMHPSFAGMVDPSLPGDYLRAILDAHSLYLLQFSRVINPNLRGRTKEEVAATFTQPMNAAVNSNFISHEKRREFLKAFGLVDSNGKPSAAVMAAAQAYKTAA

“Rift Valley fever virus nucleoprotein (N), recombinant wild type (from UniProt P21700 1-245) (natural protein)”: the stoichiometry N was 6 in data set [1]; 2 and 3 and 4 in data set [2].

GAGUUGUUAAUCUUUUUUUU (ssRNA) [RNA20-3'biotin]: in data set [3], the Kd worked out at 3.8 µM.
